Reference: patent US20220298218A1 (ANTAG THERAPEUTICS, published 2022)
*1 amine or outer side, *2 acyl side, *3 side chain or, on linkers, in order; H or OH if unused. Where no end group is shown, it is not given here. Side-chain parts run from the residue outwards. The star is where a group is joined. C18 diacid = O=C(O)CCCCCCCCCCCCCCCCC(=O)*; γGlu = O=C(O)[C@H](CCC(=O)[*:2])N[*:1]; AEEA = NCCOCCOCC(=O)O

T1: human GIP receptor (human, UniProt P48546 22-466)
T1 sequence (looked up): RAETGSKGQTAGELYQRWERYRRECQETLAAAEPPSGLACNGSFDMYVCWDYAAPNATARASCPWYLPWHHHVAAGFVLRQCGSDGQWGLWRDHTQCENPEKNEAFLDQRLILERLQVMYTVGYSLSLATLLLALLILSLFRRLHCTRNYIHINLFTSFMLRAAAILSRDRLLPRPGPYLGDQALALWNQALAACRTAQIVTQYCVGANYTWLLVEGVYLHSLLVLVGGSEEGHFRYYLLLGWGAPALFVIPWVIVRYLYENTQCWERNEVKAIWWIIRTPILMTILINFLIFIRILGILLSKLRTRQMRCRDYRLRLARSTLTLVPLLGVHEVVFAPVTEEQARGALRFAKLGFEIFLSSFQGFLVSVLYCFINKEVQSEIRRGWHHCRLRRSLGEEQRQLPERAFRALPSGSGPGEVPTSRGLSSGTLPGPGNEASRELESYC

B1: AT589 (peptide)
peptide: EGTFISDYSIAMDKIK([AEEA-AEEA-γGlu-C18 diacid])QQDFVNWLLAQKGPSSGAPPPS
B2: AT561 (peptide)
peptide: TFISDYK([γGlu-γGlu-C18])IAMDKIHQQDFVNWLLAQKGKKNDW-OH
B3: AT563 (peptide)
peptide: TFISDYSIAMDKIK([AEEA-AEEA-γGlu-C18 diacid])QQDFVNWLLAQKGKKNDW-OH
modifications: N-terminus assumed
SMILES: CC[C@H](C)[C@H](NC(=O)[C@H](CO)NC(=O)[C@H](Cc1ccc(O)cc1)NC(=O)[C@H](CC(=O)O)NC(=O)[C@H](CO)NC(=O)[C@@H](NC(=O)[C@H](Cc1ccccc1)NC(=O)[C@@H](N)[C@@H](C)O)[C@@H](C)CC)C(=O)N[C@@H](C)C(=O)N[C@@H](CCSC)C(=O)N[C@@H](CC(=O)O)C(=O)N[C@@H](CCCCN)C(=O)N[C@H](C(=O)N[C@@H](CCCCNC(=O)COCCOCCNC(=O)COCCOCCNC(=O)CC[C@H](NC(=O)CCCCCCCCCCCCCCCCC(=O)O)C(=O)O)C(=O)N[C@@H](CCC(N)=O)C(=O)N[C@@H](CCC(N)=O)C(=O)N[C@@H](CC(=O)O)C(=O)N[C@@H](Cc1ccccc1)C(=O)N[C@H](C(=O)N[C@@H](CC(N)=O)C(=O)N[C@@H](Cc1c[nH]c2ccccc12)C(=O)N[C@@H](CC(C)C)C(=O)N[C@@H](CC(C)C)C(=O)N[C@@H](C)C(=O)N[C@@H](CCC(N)=O)C(=O)N[C@@H](CCCCN)C(=O)NCC(=O)N[C@@H](CCCCN)C(=O)N[C@@H](CCCCN)C(=O)N[C@@H](CC(N)=O)C(=O)N[C@@H](CC(=O)O)C(=O)N[C@@H](Cc1c[nH]c2ccccc12)C(=O)O)C(C)C)[C@@H](C)CC
B4: AT586 (peptide)
peptide: EGTFISDYSIAMDKK([AEEA-AEEA-γGlu-C18 diacid])HQQDFVNWLLAQKPSSGAPPPS-NH2
modifications: N-terminus assumed
SMILES: CC[C@H](C)[C@H](NC(=O)[C@H](CO)NC(=O)[C@H](Cc1ccc(O)cc1)NC(=O)[C@H](CC(=O)O)NC(=O)[C@H](CO)NC(=O)[C@@H](NC(=O)[C@H](Cc1ccccc1)NC(=O)[C@@H](NC(=O)CNC(=O)[C@@H](N)CCC(=O)O)[C@@H](C)O)[C@@H](C)CC)C(=O)N[C@@H](C)C(=O)N[C@@H](CCSC)C(=O)N[C@@H](CC(=O)O)C(=O)N[C@@H](CCCCN)C(=O)N[C@@H](CCCCNC(=O)COCCOCCNC(=O)COCCOCCNC(=O)CC[C@H](NC(=O)CCCCCCCCCCCCCCCCC(=O)O)C(=O)O)C(=O)N[C@@H](Cc1c[nH]cn1)C(=O)N[C@@H](CCC(N)=O)C(=O)N[C@@H](CCC(N)=O)C(=O)N[C@@H](CC(=O)O)C(=O)N[C@@H](Cc1ccccc1)C(=O)N[C@H](C(=O)N[C@@H](CC(N)=O)C(=O)N[C@@H](Cc1c[nH]c2ccccc12)C(=O)N[C@@H](CC(C)C)C(=O)N[C@@H](CC(C)C)C(=O)N[C@@H](C)C(=O)N[C@@H](CCC(N)=O)C(=O)N[C@@H](CCCCN)C(=O)N1CCC[C@H]1C(=O)N[C@@H](CO)C(=O)N[C@@H](CO)C(=O)NCC(=O)N[C@@H](C)C(=O)N1CCC[C@H]1C(=O)N1CCC[C@H]1C(=O)N1CCC[C@H]1C(=O)N[C@@H](CO)C(N)=O)C(C)C
B5: AT587 (peptide)
peptide: EGTFISDYSIAMDKIK([AEEA-AEEA-γGlu-C18 diacid])QQDFVNWLLAQKPSSGAPPPS-NH2
modifications: N-terminus assumed
SMILES: CC[C@H](C)[C@H](NC(=O)[C@H](CO)NC(=O)[C@H](Cc1ccc(O)cc1)NC(=O)[C@H](CC(=O)O)NC(=O)[C@H](CO)NC(=O)[C@@H](NC(=O)[C@H](Cc1ccccc1)NC(=O)[C@@H](NC(=O)CNC(=O)[C@@H](N)CCC(=O)O)[C@@H](C)O)[C@@H](C)CC)C(=O)N[C@@H](C)C(=O)N[C@@H](CCSC)C(=O)N[C@@H](CC(=O)O)C(=O)N[C@@H](CCCCN)C(=O)N[C@H](C(=O)N[C@@H](CCCCNC(=O)COCCOCCNC(=O)COCCOCCNC(=O)CC[C@H](NC(=O)CCCCCCCCCCCCCCCCC(=O)O)C(=O)O)C(=O)N[C@@H](CCC(N)=O)C(=O)N[C@@H](CCC(N)=O)C(=O)N[C@@H](CC(=O)O)C(=O)N[C@@H](Cc1ccccc1)C(=O)N[C@H](C(=O)N[C@@H](CC(N)=O)C(=O)N[C@@H](Cc1c[nH]c2ccccc12)C(=O)N[C@@H](CC(C)C)C(=O)N[C@@H](CC(C)C)C(=O)N[C@@H](C)C(=O)N[C@@H](CCC(N)=O)C(=O)N[C@@H](CCCCN)C(=O)N1CCC[C@H]1C(=O)N[C@@H](CO)C(=O)N[C@@H](CO)C(=O)NCC(=O)N[C@@H](C)C(=O)N1CCC[C@H]1C(=O)N1CCC[C@H]1C(=O)N1CCC[C@H]1C(=O)N[C@@H](CO)C(N)=O)C(C)C)[C@@H](C)CC
B6: AT562 (peptide)
peptide: TFISDYSK([AEEA-AEEA-γGlu-C18 diacid])AMDKIHQQDFVNWLLAQKGKKNDW-OH
modifications: N-terminus assumed
SMILES: CC[C@H](C)[C@H](NC(=O)[C@H](CCCCN)NC(=O)[C@H](CC(=O)O)NC(=O)[C@H](CCSC)NC(=O)[C@H](C)NC(=O)[C@H](CCCCNC(=O)COCCOCCNC(=O)COCCOCCNC(=O)CC[C@H](NC(=O)CCCCCCCCCCCCCCCCC(=O)O)C(=O)O)NC(=O)[C@H](CO)NC(=O)[C@H](Cc1ccc(O)cc1)NC(=O)[C@H](CC(=O)O)NC(=O)[C@H](CO)NC(=O)[C@@H](NC(=O)[C@H](Cc1ccccc1)NC(=O)[C@@H](N)[C@@H](C)O)[C@@H](C)CC)C(=O)N[C@@H](Cc1c[nH]cn1)C(=O)N[C@@H](CCC(N)=O)C(=O)N[C@@H](CCC(N)=O)C(=O)N[C@@H](CC(=O)O)C(=O)N[C@@H](Cc1ccccc1)C(=O)N[C@H](C(=O)N[C@@H](CC(N)=O)C(=O)N[C@@H](Cc1c[nH]c2ccccc12)C(=O)N[C@@H](CC(C)C)C(=O)N[C@@H](CC(C)C)C(=O)N[C@@H](C)C(=O)N[C@@H](CCC(N)=O)C(=O)N[C@@H](CCCCN)C(=O)NCC(=O)N[C@@H](CCCCN)C(=O)N[C@@H](CCCCN)C(=O)N[C@@H](CC(N)=O)C(=O)N[C@@H](CC(=O)O)C(=O)N[C@@H](Cc1c[nH]c2ccccc12)C(=O)O)C(C)C
B7: AT588 (peptide)
peptide: EGTFISDYSIAMDKIK([AEEA-AEEA-γGlu-C18 diacid])QQDFVNWLLAQKGPSSGAPPPS-NH2
modifications: N-terminus assumed
SMILES: CC[C@H](C)[C@H](NC(=O)[C@H](CO)NC(=O)[C@H](Cc1ccc(O)cc1)NC(=O)[C@H](CC(=O)O)NC(=O)[C@H](CO)NC(=O)[C@@H](NC(=O)[C@H](Cc1ccccc1)NC(=O)[C@@H](NC(=O)CNC(=O)[C@@H](N)CCC(=O)O)[C@@H](C)O)[C@@H](C)CC)C(=O)N[C@@H](C)C(=O)N[C@@H](CCSC)C(=O)N[C@@H](CC(=O)O)C(=O)N[C@@H](CCCCN)C(=O)N[C@H](C(=O)N[C@@H](CCCCNC(=O)COCCOCCNC(=O)COCCOCCNC(=O)CC[C@H](NC(=O)CCCCCCCCCCCCCCCCC(=O)O)C(=O)O)C(=O)N[C@@H](CCC(N)=O)C(=O)N[C@@H](CCC(N)=O)C(=O)N[C@@H](CC(=O)O)C(=O)N[C@@H](Cc1ccccc1)C(=O)N[C@H](C(=O)N[C@@H](CC(N)=O)C(=O)N[C@@H](Cc1c[nH]c2ccccc12)C(=O)N[C@@H](CC(C)C)C(=O)N[C@@H](CC(C)C)C(=O)N[C@@H](C)C(=O)N[C@@H](CCC(N)=O)C(=O)N[C@@H](CCCCN)C(=O)NCC(=O)N1CCC[C@H]1C(=O)N[C@@H](CO)C(=O)N[C@@H](CO)C(=O)NCC(=O)N[C@@H](C)C(=O)N1CCC[C@H]1C(=O)N1CCC[C@H]1C(=O)N1CCC[C@H]1C(=O)N[C@@H](CO)C(N)=O)C(C)C)[C@@H](C)CC

biological target: T1, human GIP receptor; test: cell-based or functional assay

| Binder | cAMP agonism % Emax | cAMP antagonism | cAMP antagonism % inhib | cAMP antagonism pIC50 |
| --- | --- | --- | --- | --- |
| B1 | 0% | 5.84 nM | 95% | 8.2 |
| B2 | 0% | 11.2 nM | 97% | 8 |
| B3 | 0% | 4.64 nM | 80% | 8.3 |
| B4 | 0% | 25.1 nM | 80% | 7.6 |
| B5 | 0% | 3.98 nM | 90% | 8.4 |
| B6 | 0% | 3.98 nM | 82% | 8.4 |
| B7 | 0% | 23.3 nM | 97% | 7.6 |
